Results: the nanobody polyreactivity screen of Harvey et al. (2022)

Assay: yeast display, Sf9 membrane polyspecificity reagent, FACS + sequencing; frameworks hold sequencing errors
Procedure, shortened: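 Polyreactivity labels are assigned by the sorting gate from which each nanobody was recovered. The gates were low and high (top ~1%), set on anti-HA fluorescence for expression and streptavidin fluorescence for reagent binding. Before sorting, galactose-induced (36–48 hours) yeast display cells were stained for 1 hour at 4 °C with 10% biotinylated, detergent-solubilized Sf9 membrane reagent.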

Sequence | polyreactivity (PSR sort gate)
QVQLVESGGGLVQAGGSLRLICAASGRILWYYAMGWYRQAPGKERELVAAITSSGRTKYADSVKGRFTISRDNAKNTVYLQMNSLKPEDSAVYYCAARPSQWNYDYRRVYYWGQGTQVTVSS | high polyreactivity
QVQHVDSGGGLVQAAGSLRLSCAASGRTFGVYAMGWYRQAPGKERELVATITSVDRTNYADSVKGRFTISRENAKNTVYLLMNSLKPDDTAVYYCADVGRGPRYFYWGQGTQVTVSS | high polyreactivity
QVQLVESGGGLVQAGGSLRLSCAASGSLFNLYAMGWYIQAPGKERELVAAISWSGGRTFYADSVKGRFTISRDNAKNTVFLQMNSLKPEDTAVYDCAARSSRTTRQGYDYWGQGTQVNVSS | high polyreactivity
QVQLVESGGGLVQAGGSLRLSCAASGFTFLRYAMGWYRQAPGKESELVAAISTSGGSTSYADSVKGRFTISRDNAKNTVYLQMNSLKPEDTAVYYCNAVLYKVSISEYDYWGQGTQVTVSS | high polyreactivity
QVQLVESGGGLVQAGGSLRLSCAASGFTFYRYAMGWYRQAPGKERELVAAITWSGGATYYADSVKGRFTISRDNAKNTVYLQMNSLKPEDTAVYYCAADIYDGGFDYWGQGTQVTVSS | low polyreactivity
QFQLVESGGGLVQAGGSLRLSCAASGSTFSANAMGWYRQAPGKERELVASISRRGGSTYYADSVKGRFTISRDIAKNTVYLQMNSLKPEDTAVYYCNKRFARQGSPSEYGRSQIGYYYWGQGTQVTVSS | high polyreactivity
QVQLVESGGGLVQAGGSRRLSCAASGSTFYGYAMGWYRQAPGKEREFVAAITTSGGSTYYADSVKGRFTISRDNAKNTVYLQMNSLKPEDTAVYYCDADAPSWYDRQYDYWGQGTQVTVSS | low polyreactivity
QVQLVESGGGLVQAGGSLRLSCAASGFTFDGYAMGWYRQAPGKERELVAAITRRGGRTYYADSVKGRFTISRDNAKNTVYLQMNSLKPEDTAVYFCAAERYGDRFYGAYDYWGQGTQVTVSS | high polyreactivity
QVQHVESGGGLVQAGGSLRLSCAASGSTFGYNDMGRYRQAPGKERELVAAIDTGVSTNYADSVKGRFTISRDNAKNTVYLQMNSLKPEDTAVYYCAKSGSAYWHSGWSVGFDYWGQGTQVTVSS | low polyreactivity
QVHLVESGGGLVQAGGSLRLCCAASGSILVSYAMGWYRQAAGKERELVAAITYTGGNTYYADSGKGRFTISRDNAKNTVYVQLNSQKPEDTAVYYCNAGWTQTSVTFDYWGQGTQVTVSS | low polyreactivity
QVQLVESGGGIVQAGGSLRLSCAASGSTFWIYAMGWYRQAPGKERELVAAISWRGGRTYYADSVKGRFTISRDNAKNTVYLQMNSLKPQDTAVYYCNAQKRDGSMGYWGQGTQVTVSS | high polyreactivity
QVQLQESGGGLVQAGGSLRLSCAASGYIFPTAIMGWYLQATGKERKLVAAINPGSNTYYADSVKGRFTFSRDNAKNTVYLQMYSLKPEDAAVYYCAVSIWLEGTLDYWGQGTQVTVSS | low polyreactivity
QVQLVESGGGLVQAGGSLRLSCAASGSIFFYNVMGWYRQAPGKERELVASISWRGASTYYADSVKGRFTISRDNAKNTVYLQMNSLKPEDTAVYYCAARFGSATRYQTGYYWGQGTQVTVSS | high polyreactivity
QVQLVESGGGVVQAGGSLRLSCAASGRTFMVNAMGWYRQAPGKERELVAAISQRGGSTDYADSVKGRFTISRDNAKNTVYLQMNSLIPEDTAVYYCAADSLRGSAPTYYSTLEYWGQGTQVTVSS | low polyreactivity
QVQLVESGGGLVHAGGSLRLSCAASGRIFRIYAMGWYRQAPGKERELVAAISRGGRTNYADSVKGRFTISRDNAKNTVYLQMNSLKPEDTAVYYCNATSNWGPTKVRFNYWGQGTQVTVSS | high polyreactivity
QVQLVESGGGLVQAGGSLRLSCAATGFTFYTYAMGWYRQATGKETELVADISSGGSTNYADSVKGRFRISRDNAKNTVYLQMNSLIPEDTAVYYCSDDYYFLDWYDYWGQGTQVTVSS | low polyreactivity
QVQLVESGGGLVQAGGSLRLSCAASGGTFDWNTMGWYRQAPGKERELVASITSGGRTNYAASVKGRFTISRDNAMNPVYLQLNSLKPEDTAVYYCANYPRSAYPWQTWVGQKFDYWGQGTQVTVSS | low polyreactivity
QVQLVESGGGLVQAGGSLRLSCAASGSTFLPYAMGWYRQAPGKERELVAAIDWNGGRTYYADSVKGRFTISRDNAKNTVYLQMNSLKPEDTAVYYCAKLGRAAQGNYYWGQGTQVTVSS | high polyreactivity
QVQLVESGGGLVQAGGSLRLSCAASGFTFTGYAMGWYRQAPGKERELVAAISQSGGSTYADSVKGRFTISRDNAKNTVYLQMNSLKPEDTAVYYCAAVWFLLTEYDYWGQGTQVTVSS | low polyreactivity
QVQLVESGGGLVQAGGSLRLSCAASGITFYGNAMGRYRQAPGKEREVVAAISSSGGTTYYADSVKGRFTISRDNAKNTVYLQMNSLKPEDTAVYFCNALHPVVYYGTYFNLRRYDYWGQGTQVTVSS | low polyreactivity
QVQLVESGGGLVQARGSLRLSCAASGFTFQNNAMGWYRQAPGKERELVAAISRSGGSTYYADSVKGRFTISRDNANITVYLQMNSLKPEDTAVYYCAKSSGTLWITKYDYWGQGTQVTVSS | low polyreactivity
QVHLVESGGGLVQAGGTLRLRCAASGSTFERYVMGWYRHPLGKKGSWLPVLNHNGCSTYYAESVKGRFTISRDNAKNTVYLQMNSLKQEVTAVYYCAAYFRTVLDYGSWGQGTQVTVSS | low polyreactivity

Sequence | polyreactivity (PSR sort gate)
QVQLVESGGGLVQAGGSLRLSCAASGRIFLWYAMGWYRQAPGKERELVASITRSGVTTYYADSVKGRFTISRDNAKNTVYLQMNSLKPEDTAVYYCNKDFRGDAIKLDVNYWGQGTQVTVSS | low polyreactivity
QVQLVESGGGLVQAGGSLRLSCAASGSTFAFYAMGWYRQAPGKERELVAAISRSGGRTYYADSVKGRFTISRDNAKNTVYLQMNSLKPEDTAVYYFAAPSSITTGPHREYDYWGQGTQVTVSS | high polyreactivity
QVQLVESGGGIVQAGGSLRLSCAASGSTFILNAMGWYRQAPGKERALVATISSSDTSTYYADSVKGRFTISRDNAKNTVYLQMNSLKPEDTAVYYCNADDYTTSYLQRVYHYGVEYYYWGQGTQVTVSS | low polyreactivity
QVQLVESGGGLLQAGGSLRLSCAASGSIFPQYAMGWYRPAPGKERELVAAITWSGSRTRYADSVKGRFTISRDNAKNTVYLQMNSLKPEDTAVYYCNAYWGRSGYAGGYWGQGTQVTVSS | high polyreactivity
QVQLVESGGGLVQAGGSLRLSCAASGSTFYKYAMGGYRQAPGKERELVAAISTRGGSTYYADSVKGRFTISRDNAKNTVYLQMNSLKPEDTAVYYCAADGSGGHDDYWGQGTQVTVSS | high polyreactivity
QVQLQESGVGLVQAGGCLSCTASCTIFGQGDMCWYRQAPGKERELVATINDGASTYYADSVKGRFTISRDKAKNTVYLQMKSLKPDVTAVYYCAVFTDITTYFGYWGQGTQVTVSS | low polyreactivity
QVQLVESGGGLVQAGGSLRLSCAASGSTFFIKAMGWYRQAPGKERELVAAITSTDSTTYADSVKGRFTISRDNAKNTVYLQMNSLKPEDTAVYYCAKETIGQDPVSGAWARHEYDYWGQGTQVTVSS | low polyreactivity
QVQLVESGGGLVQAGGSLRLSCAASGRTFGQYVMGWYRQAPGKERELVAAISSGDSTNYADSVKGRFTISRDNAKNTVYFQMNSLKPEDTAVYYCAAVYWVLWQGSTYGYWGQGTQVTVSS | low polyreactivity
QVQLVESGGGLVQAGGSLRLSCAASGRTFVVKAMGWYRQAPGKERELVAAITRRGGITYYADSVKGRITISRDNAKNTVYLQMNSLKPEDTAVSYCAADRSYYPDTRTTSGYNYWGQGTQVTVSS | low polyreactivity
QVQLVESGGGLVQAGGSLRLSCAASRNIFDTYVMGWYRQAPGKETELVAANTSDGGTYYADSVKGRFTISRDNAKNTVFFQMNSLKPVDTAVYSCAADTYYYPIHDYWGQGTQVTVSS | low polyreactivity
QVQLVESGGGLVQAGGSLRLSCAASGFTFSWYAMGWYRQAPGKERELVAVITGAGITDYADSVKGRFTISRDNAKNTVYLQMNSLKPEDTAVYYCNAKSDRGVSGSGSGAYDYWGQGTQVTVSS | low polyreactivity
QVQLEESGGGLVQAGGSLRLSCAASGSIFSPNAMGWYRQAPGKERELVAAIDTRDGTTYYADSVKGRFTISRDNAKNTVYLQMNSLKPEDTAVYYCAADQLVGERDYWGQGTQVTVSS | low polyreactivity
QVQLVESGGGLVQAGGSLRLSCAASGSTFHRYAMGWYRQAPGKERQLVARINGSGGSTYYADSVKGRFTISRDNAKNTVYLQMNSLKPEDTAVYYCNARAVSVRASTKVPSGLYDFWGQGTQVTVSS | low polyreactivity
QVQLVESGGGLVQAGGSLRLSCAASGITFNPYVMGWYRQAPGKERELVAVITSGGSTNYADSVKGRFTISRDNAKITVYLEMNSLKPEDTAVYYCNVDRRPYYVWRVTYDYWGQGTQVTVSS | low polyreactivity
QVQLVESGGGLVQAGGSLRLSCAASGSIFAYYAMGWYRQAPGKERELVAAIDSRGGSTYYADSVKGRFTISRDNAKNTVYLQMNSLKPEDTAVYYCAARLRYPRRGQGDNYWGQGTQVTVSS | low polyreactivity
QVQLVESGGGLVQAGGSLRLSCAASGIIFPWSTMGWYRQAPGKERELVAAISSGGRTNYADSVKGRFTISRDNAKNTVYLQMNSLKPEDTAVYYCAAKYYRDRDWGQGTQVTVSS | high polyreactivity
QVQLQESVGGPVLAGGSLRLSCGASGTIFVRLDMGWYRQARGKVREFVATIGSGSSTYYADSVKGSFTISRDNVKNTVYLKMNSLKPEDTAVYYCAVYAAEQSRHYYWDQGTQVTVSS | low polyreactivity
QVQLVESGGGLVQAGGSLRLSCAASGITFDLYAMGRYRQAPGKERELVAASTYYADSVKGRFTISRDNAKNTVYLQMNSLKPEDTAVYFCNTREPVTYDYWGQGTQVTVSS | high polyreactivity
QVQLVETGGGLVQAGSSLRLSCAASGSTFIVYAMGWYRQAPGKEREFVAAITYRGGSSYYADSVKGRFTISRDNAKNTVYLQMNSLKPEDTAVYYCATETDRYPYIRRYQFPYYYWGQGTQVTVSS | high polyreactivity
QVQLVESVGGLVQAGGSLRLSCAASGRILRTNALGWYRKAPGKERELVAAISSDGSTYYADSVKGRFTISRDNAKNTVYLQMNSLKPEDTAVYYCAARLFYRGPRFDYWGQGTQVTVSS | low polyreactivity
QVQLVESGGGLVQAGGSLRLSCAASGRIFNFYAMGWYRQAPGKERELVASITSGGRTSYADSVKGRFTISRDNAKNTVYLQMNSLKPEDTAVYYCAAVLFGYPRTIGTWYDRYYYWGQGTQVTVSS | high polyreactivity
